Data as given in US20260226133A1.
Blank lines part the entries; values can stand above or below the binder they belong to.

Experiments:
[1] = molecular target: CD22 (UniProt P20273); assay: Malibu-Glo assay; NLuc fusion supernatant on RAJI cells, control K562 cells
[2] = molecular target: CD33 (UniProt P20138); assay: Malibu-Glo assay; NLuc fusion supernatant on HL60 cells, control Jurkat cells
CD33, sequence (P20138 18-364 limits assumed): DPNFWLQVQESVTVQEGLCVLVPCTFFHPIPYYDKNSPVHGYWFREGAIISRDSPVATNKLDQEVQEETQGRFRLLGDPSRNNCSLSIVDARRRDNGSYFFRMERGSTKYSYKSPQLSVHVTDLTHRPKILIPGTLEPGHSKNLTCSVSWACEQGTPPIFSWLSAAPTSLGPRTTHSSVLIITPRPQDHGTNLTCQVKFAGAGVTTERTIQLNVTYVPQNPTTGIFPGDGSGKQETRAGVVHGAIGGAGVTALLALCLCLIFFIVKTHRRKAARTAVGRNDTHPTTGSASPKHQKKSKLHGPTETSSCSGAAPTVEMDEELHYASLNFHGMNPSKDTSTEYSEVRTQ

CD22, sequence (P20273 20-847 limits assumed): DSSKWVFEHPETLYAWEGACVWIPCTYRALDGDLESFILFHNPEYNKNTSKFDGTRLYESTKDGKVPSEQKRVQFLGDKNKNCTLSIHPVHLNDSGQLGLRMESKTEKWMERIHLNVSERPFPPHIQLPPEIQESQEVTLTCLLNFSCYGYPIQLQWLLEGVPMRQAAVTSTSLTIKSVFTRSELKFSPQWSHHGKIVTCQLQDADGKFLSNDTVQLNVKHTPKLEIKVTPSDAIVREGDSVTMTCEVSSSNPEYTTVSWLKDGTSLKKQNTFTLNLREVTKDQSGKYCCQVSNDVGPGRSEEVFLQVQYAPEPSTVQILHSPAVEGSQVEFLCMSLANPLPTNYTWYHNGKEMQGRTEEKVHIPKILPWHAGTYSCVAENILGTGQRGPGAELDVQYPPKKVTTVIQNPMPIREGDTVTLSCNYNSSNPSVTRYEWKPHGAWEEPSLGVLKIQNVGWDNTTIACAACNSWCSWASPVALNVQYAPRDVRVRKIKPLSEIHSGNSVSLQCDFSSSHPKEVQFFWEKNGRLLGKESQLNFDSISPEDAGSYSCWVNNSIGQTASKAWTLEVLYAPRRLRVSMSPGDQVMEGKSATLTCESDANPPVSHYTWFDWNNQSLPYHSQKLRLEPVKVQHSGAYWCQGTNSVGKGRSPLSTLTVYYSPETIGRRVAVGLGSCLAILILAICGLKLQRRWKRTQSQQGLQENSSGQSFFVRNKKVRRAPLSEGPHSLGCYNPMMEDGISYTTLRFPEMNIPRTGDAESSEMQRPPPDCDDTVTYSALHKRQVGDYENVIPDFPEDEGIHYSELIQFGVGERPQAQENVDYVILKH

- Fold Change (Luc activity, target cell line over control cell line) [1]: 4.32 fold
B1: hu-077-USC1 vHH (CD22), NLuc fusion (VHH, part only; not given: NLuc luciferase fusion partner, part only)
VHH, part: QVQLQESGPGLVKPSQTLSLTCTVSGGSITTGEFYWNWFRQPPGKGLEWMGAIAASGSTTYSPSFESRTSISRDTSKNQFSLKLSSVTAADTAVYYCGRSFGVAAVTTGQNRGQGTLVTVSS

- Fold Change (Luc activity, target cell line over control cell line) [2]: 17 fold
B2: hA873-G30S vHH (CD33), NLuc fusion (VHH, part only; not given: NLuc luciferase fusion partner, part only)
VHH, part: QVQLVESGGGVVQPGRSLRLSCVASGYTYSINCMGWFRQAPGKGREGIAAISTGGGTTGVADSVKGRFTISQDNAKNTVYLQMNSLRAEDTAMYYCAARSTYSGYACVYSEVNGYNYRGQGTQVTVSS
